In patent publication EP3632462A1:

Assays:
[1] = target: IgG1-005-E345R/E430G/S440K (human); experiment: HP-SEC in PBS pH 7.4, equimolar mixture of the two antibodies
[2] = target: IgG1-005-E345R/E430G/Y436I/S440K (human); experiment: as above
[3] = target: FcyRIIIa receptor, V158 (high affinity) variant (UniProt P08637); experiment: cell-based or functional assay
[4] = target: Protein A (Staphylococcus aureus) (UniProt P38507); experiment: ratio of the concentrations by Octet protein A and by A280
[5] = target: Protein A column (HiTrap MabSelectSuRe); experiment: 1.0 mL HiTrap MabSelectSuRe column, pH 5.0 against neutral pH
[6] = target: IgG1-005-E345R/E430G/S440Y (human); experiment: HP-SEC with multiple angle light scattering (MALS), self-association
[7] = target: IgG1-005-E345R/E430G/S440Y (human); experiment: dynamic light scattering, 2.86 mg/mL in PBS pH 7.4, self-association
C1q (human) = C1q (human) (UniProt P02745); experiment: ELISA: antibody dilution series coated, 3% pooled human serum as source of C1q, anti-C1q detection
Sequence of C1q (human) (P02745 23-245 limits assumed, chain 1 of 3): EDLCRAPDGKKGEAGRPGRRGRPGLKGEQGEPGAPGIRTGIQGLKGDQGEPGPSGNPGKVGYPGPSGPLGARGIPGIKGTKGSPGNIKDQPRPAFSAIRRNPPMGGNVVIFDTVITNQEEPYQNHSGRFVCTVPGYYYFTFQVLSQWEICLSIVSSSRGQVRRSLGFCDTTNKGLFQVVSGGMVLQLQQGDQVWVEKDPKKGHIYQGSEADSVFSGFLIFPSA
Sequence of C1q (human) (P02746 28-253 limits assumed, chain 2 of 3, further chain): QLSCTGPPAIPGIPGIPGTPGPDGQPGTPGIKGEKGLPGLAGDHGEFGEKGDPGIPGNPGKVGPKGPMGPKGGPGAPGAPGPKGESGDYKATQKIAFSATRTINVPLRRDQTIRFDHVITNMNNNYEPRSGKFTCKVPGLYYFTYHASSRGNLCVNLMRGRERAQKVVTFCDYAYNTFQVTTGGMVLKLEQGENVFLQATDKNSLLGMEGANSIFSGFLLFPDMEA
Sequence of C1q (human) (P02747 29-245 limits assumed, chain 3 of 3, further chain): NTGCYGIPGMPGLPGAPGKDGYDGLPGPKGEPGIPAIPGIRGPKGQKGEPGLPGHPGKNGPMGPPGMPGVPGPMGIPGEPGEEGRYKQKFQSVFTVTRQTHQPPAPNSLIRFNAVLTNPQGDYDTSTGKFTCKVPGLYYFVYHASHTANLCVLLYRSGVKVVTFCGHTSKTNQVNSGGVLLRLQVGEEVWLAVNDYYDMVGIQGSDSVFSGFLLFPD

[8] = target: Protein A (Staphylococcus aureus) (UniProt P38507); experiment: apparent IgG concentration on Octet QK protein A sensortips against an IgG standard curve; A280 gave 2905 µg/ml
[9] = target: Protein A column (HiTrap MabSelectSuRe); experiment: saturated 1.0 mL HiTrap MabSelectSuRe column loaded at pH 5.0 (antibody monomeric), A280 of the dialyzed eluate
[10] = target: Protein A column (HiTrap MabSelectSuRe); experiment: saturated 1.0 mL HiTrap MabSelectSuRe column loaded at neutral pH (hexamerization allowed), A280 of the dialyzed eluate

Sequence of FcyRIIIa receptor, V158 (high affinity) variant (P08637 other isoform, or with tags, fused parts or gaps mutant limits assumed): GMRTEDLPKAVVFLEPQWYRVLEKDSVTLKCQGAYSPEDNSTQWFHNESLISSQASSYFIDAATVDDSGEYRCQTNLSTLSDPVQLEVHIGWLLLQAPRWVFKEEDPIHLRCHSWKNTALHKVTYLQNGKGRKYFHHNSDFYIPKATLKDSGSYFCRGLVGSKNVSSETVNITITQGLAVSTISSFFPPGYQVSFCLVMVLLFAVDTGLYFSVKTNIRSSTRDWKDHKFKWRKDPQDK

IgG1-005-E345R/E430G/K439E/S440Y (antibody)
multimers (HP-SEC) [1]: 65%
multimers (HP-SEC) [2]: 93%

IgG1-005-E345R/E430G/S440Y (antibody)
EC50 (ng/mL), ADCC reporter assay with Raji target cells [3]: 36 ng/mL
Maximal signal (RLU), ADCC reporter assay with Raji target cells [3]: 394000 RLU
A280/Protein A x 100 (%) [4]: 71%
increase of protein yield, binding at pH 5.0 against neutral pH [5]: 36%
apparent average MW of the multimeric peak [6]: 772 kDa
monomeric subunits per complex (monomeric subunits) [6]: 5.4
apparent MW in solution [7]: 876 kDa
monomeric subunits per complex (monomeric subunits) [7]: 6.17
EC50 (C1q (human)): 0.52 µg/mL
Octet-Protein A [8]: 2050 µg/mL
yield of Protein A purification at 1.0 mL scale [9]: 29.1 mg
yield of Protein A purification at 1.0 mL scale [10]: 21.4 mg
